From the supplement of paper PMC12636428

System: Saccharomyces cerevisiae
Experiment: transcriptional activation domain activity (GFP:mCherry ratio, weighted mean of sorted bins, harmonized to initial dataset scale) (arbitrary fluorescence ratio units); higher = stronger transcriptional activation
Conditions: beta-estradiol 1 µM; induction time 4 h
Procedure, shortened: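 Barcoded protein tiles fused to an estradiol-inducible synthetic transcription factor were integrated at the yeast URA3 locus, in diploids carrying a GFP reporter. Cultures were diluted 1:5 into SC with 1 uM beta-estradiol, held 4 hours at 30 °C, sorted into 8 bins by GFP:mCherry ratio, and barcodes sequenced. Tiles under 50 reads were discarded. Activation activity is the read-weighted mean of bin median fluorescence, averaged across barcodes, then linearly mapped onto the initial dataset scale.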

Going from “GSSAEGEGDKEKTAVKRKRDSQVTGQQQQQQQQRADSSNRATSRKRRKTNKEG” to “GSSAFGASGSSGGAFGQPAAQQQQSAFGGGGGLFGKPQGSSFGSTALATTAGQ”, the “transcriptional activation domain activity” value falls from 60100 to 55800.

Compared with “GSSDGGSHNAPGAPRPMALRALITTKEAGVIIGKNGKNVAEMREQSGAKITVS”, “GSSGRRVRILGVCGLGRNYVMMRVIELGGILEGEVTIRRMAVSSHPSSVWIAT” is higher in “transcriptional activation domain activity” value: 48900 for the first, 67500 for the second.

Going from “GSSGSGAGSKGGPAPRGSSAKRSSGSGSGGGGRKGGGSAGKGSGGGGGRGRSG” to “GSSQNTDQPHKSRKKRQREQDEDDTSTNKRSHRKSKKHKSSRKHKSSRKTAKT”, the “transcriptional activation domain activity” value falls from 28600 to 25100.

Compared with “GSSTTPARCTSARTMRSASYGASKYKGREGKVTQVYRKKWVIHVQRDKVGQVR”, “GSTHPRQVFDQLDDCSSILFSPLTTNTNNEFEGESDDFVHSPYLNSEADFSQI” is lower in “transcriptional activation domain activity” value: 83200 for the first, 75200 for the second.

Going from “GSTNRSGDGSSDDERRKSRRRGRRRKASVSSSSSGGSKSSSTTSRSRSRSRSR” to “GSTPGKTASTGRGTAGGKGVAAGSKAPASTRGGGGGTAGGGGKAGGANTKTAV”, the “transcriptional activation domain activity” value rises from 7680 to 56000.

Compared with “GSTQAVDLIAYGGYKFVGVITTLISGFEFLHLGRSIYTMVFLYSFLSNAFFLL”, “GSTSSSNEEKKEQSITSESKAAGGLFGSIKSNEPPTSAFGSLSTTEAKPAASP” is lower in “transcriptional activation domain activity” value: 63600 for the first, 32800 for the second.

Going from “GSVGDELVCVVKRARPIAPSSASNAIKVRRGDVRRAVIVRTKKAVRRPDGRLI” to “GSVKKKLASSSRTGQACDRCKVRKIRCDPRPEGCSPCAQNRTPCKTTDRITGR”, the “transcriptional activation domain activity” value rises from 29900 to 41900.

Compared with “GSWMILRILLHQLLDSVQYIPEYKDIAALRYRGPTYYFQELQKAFYHVLDAVP”, “GSYCISLVNVLVAFGVVLLHASTSGLWHWNPPFRAPNSVVFIYLLSNIFLITV” is lower in “transcriptional activation domain activity” value: 65200 for the first, 55000 for the second.

First: GSYTSAARGGKAVQEAIRAMIERKGLELRQKQRKLRQDVVIVMHHATALPGTS
Second: GTAHHHDPNDPKRPRACEACRGLKVRCEPDPTNPNPDGPCKRCAKAGRACLVT
The “transcriptional activation domain activity” value of the first is higher: 56300 for the first, < 6570 for the second.

First: GTAIEGLVIRFYIRKYEDSNNNNLEQNKTGQVRVSSPRAYLRIVGYTWVLAWF
Second: GTCGKLGLLCRSMALYSPEVTVVTVSGGGGSSRWVEYLELALRTTGRVAVLLT
The “transcriptional activation domain activity” value of the first is lower: 38700 for the first, 64500 for the second.

First: GTDDAEAREKTGAADPSADPASRKRRADDGEGDARKRIRTEGGSASAAAASSS
Second: GTEYEIGRPSDEEVTITRMLDKVLRRSDAVDKESLCIVAGQRVWHLRLTLHCL
The “transcriptional activation domain activity” value of the first is lower: 14100 for the first, 68500 for the second.

First: GTGDEQTGSGEKGKKKKASRACYHCQKAHLTCDDARPCGRCVKRNLASTCTDG
Second: GTGEEEEETTKHIVRKRGGGRGGRGKQESEQEWESEEEEEGTGEEEETTKQRT
The “transcriptional activation domain activity” value of the first is higher: 40600 for the first, 39000 for the second.

Compared with “GTGGLSELRDAFDDSKASYGYARVTYSNDKESQREKFILVVWIGSGCKVMRKG”, “GTGRSSDDVSSGAGSEEVSQTLDEKMAEEQKGRQRLNNIIQQFYIKGALVIVG” is higher in “transcriptional activation domain activity” value: 36600 for the first, 67400 for the second.

Compared with “GTKKEEKGEKDKTETKKSKKSSKHNKVTSKKSSSKKSTRKAAISDADSSDDSS”, “GTLNAQVTICEYSSTGQPLNGQGGCYNLHPVFNWIHHCIMSIFLVFMIAWLPL” is higher in “transcriptional activation domain activity” value: 35100 for the first, 78500 for the second.

Going from “GTRAPAVHRDQRGPVDSQERAGEDVVRRERSVGQGRRAVRGARLVYAGAAALE” to “GTSGTSVASRPSITPRAFGSSRSSRPSARSGSPSSRTAPSTPAPASSTRRTRP”, the “transcriptional activation domain activity” value falls from 51500 to 31100.

Compared with “GVCLKVGITKPKKPNSAERKTARVRLSTGRVVTAYIPGEGHNVQQHSVVLVRG”, “GVCLKVGITRPKKPNSGERKTARVRLSSGRMITAYVPGEGHNIQQHSVVLVRG” is higher in “transcriptional activation domain activity” value: 39500 for the first, 51900 for the second.

Going from “GVDDADHEEEEEEEEEEEQEGARYGALMGGLGVAQGAMRILAPAVAGGVYAVS” to “GVDERRAIVESFVKRVTHKYLRHCDPSEPVLLLSSLVIKLIFARFWLLVYRPQ”, the “transcriptional activation domain activity” value falls from 67300 to 44900.

Going from “GVDGDGAADADADEDDEEGEEDEDDEGGGAGRKRKKARMEAAPKAKPKPAPAK” to “GVDPATKEKKVPSDVLEEPPTLKESLQVLYKYCILCFNLNRKRVVLQFIASFL”, the “transcriptional activation domain activity” value rises from 27700 to 73300.

Going from “GVEGQGKRTRAGKKRRIVLRERQRKRVKEEEERKKKGEEKEGREREKRVRRNR” to “GVEKTAEKPSEEPAEEAPEKKAEPTTEEPEPEAAKPKARGGRPKKVIAAPKED”, the “transcriptional activation domain activity” value falls from 46700 to 38300.

First: GVENQVDFHHNEKHKLMLLKALGYRVLADINKVSVVMPAALVGTVVLTLRGRG
Second: GVERNHLSVFRPVSFSFSSWFMLLLFFCFRGVELVILFPDCSWFLCIPLFYSF
The “transcriptional activation domain activity” value of the first is lower: 44500 for the first, 67700 for the second.

Going from “GVEWWNVTSPEDSTYDPASLPLDVWDPLLPHDTGFSEIDITQCFFDPFFMPFL” to “GVFCLALWVPATGFELVSFFALLVGAIFGVFWMVAGLKNLQSSLSISWLVIAL”, the “transcriptional activation domain activity” value falls from 160000 to 65200.

Compared with “GVFILCRKRIVYMDGWRVWGVLIFRLFTWLFLGWLKIARGLGLGPALMMFLWL”, “GVFVLLEQYCGINFYGLRKHGGTASMCPLGGTLRSWAYRFVAISYPPKRMVNG” is lower in “transcriptional activation domain activity” value: 46200 for the first, 27600 for the second.

First: GVLALSPCDDTTLKATMGVIEELLIYLYFAGQMRELFYWACRVVNLSVHHGHA
Second: GVLFCLSCLSFINLSFFLGGGCLFSFSFLFPALVWRYAFFLLVLDYRRILNIP
The “transcriptional activation domain activity” value of the first is higher: 69100 for the first, 36900 for the second.

Compared with “GVLMCYYSRSHNFDVAKRHFQRILNLLPLLKSTPNIFPLYGLIFSTMGLLVLI”, “GVLRLFQICLPCFAAVDFVQGFVRYLYHIPNFNGVYETKMWVWVGLIICLIFK” is lower in “transcriptional activation domain activity” value: 62600 for the first, 53900 for the second.

Compared with “GVMIVRKRLLIAIATVYGSPDRGLRRIIQSIGKVLWRHGLLSDQFYSAGEIFS”, “GVNAIGRRSSFQDVEAGKGGLIVPLRHLPPRGEDAGLVLQVHLNRAVSKLARM” is lower in “transcriptional activation domain activity” value: 69800 for the first, 65200 for the second.

Compared with “GVPIWRLTGETWNWKEIVDRHPLTGKVVRRRSLKWGMACYRFWWVVWGCLFYI”, “GVRKDRQQMYFILATNSMIDLGFVVASFVPLVLLWIGGMGYLRVVWRVTLGLG” is lower in “transcriptional activation domain activity” value: 59300 for the first, 51400 for the second.

First: GVSMGSGYFFMVWLTMWLYSELNFWVIDGVCSLVEMQWMPFFILSWIICQVAG
Second: GVVWCGVIFGFVAFHILCLFDVFFSFFFFFFEFWFWFFGFVYLNGLGWVGVGW
The “transcriptional activation domain activity” value of the first is higher: 50800 for the first, 40100 for the second.

First: GWAFGTKNEDGFQLFDCTGEALGVILRLSHILRHVTTFWRLRTAVDLLLQAQC
Second: GWFGAVFGVLYFFLFIFGITSVYIGFSFLLYSICLSHGTVWHPLCQFHFFYFI
The “transcriptional activation domain activity” value of the first is higher: 58900 for the first, 28100 for the second.

First: GWFYFNVLRHAELMVFTIFSPEHVTIWALRQHSVARLIRALCPEKLSMSHGFL
Second: GWKGRGKSGGRGRKTSGGGLKTERKSGGVSKASGGGGSSSRGGRGAGAGAGAG
The “transcriptional activation domain activity” value of the first is higher: 32400 for the first, 14100 for the second.

Compared with “GWKYIILAACDVEGNFLVVKVGLFSTTILLVMTLRYQAYQYTNLLSCMLLDAW”, “GWNTHRAQTYTQLAKHLQSHGFHCKQYLGWLCHNIVAIEVYWMMIHLKRILPL” is higher in “transcriptional activation domain activity” value: 43000 for the first, 56300 for the second.

First: GWVVILSSRCRIKTSVSRERLKMDVFWLIESIGLTVEYWRIVWDLRATYHFLR
Second: GYCLKIRDRFFIFLWHCWVRGIVVTPFGSKIISGLSFESIPQSSCVLIQNVTI
The “transcriptional activation domain activity” value of the first is higher: 33000 for the first, 28400 for the second.

Compared with “GYDDTVVLDGCYAAAIRWKSFAYVSTAVRISWKRYLMRFLLRISPWLTIIFSV”, “GYIGLSSGYFWSGLLYNVSITISLYCLAMFWVCLHDDLVPFRPVPKFLVIKLV” is lower in “transcriptional activation domain activity” value: 57600 for the first, 53000 for the second.

Compared with “GYIVFLSMVMIHTDSRLDHLGKRSVLSEENSKNSWQLLVLFLHQLSTYWLLPK”, “GYLHHILKLFDCAFGISYPQLHHVLEVRTRALLLAGLNLTFVLDGPLPMWKAA” is lower in “transcriptional activation domain activity” value: 57900 for the first, 54900 for the second.

Going from “GYRIVKMLGTVYGITVRSRNWAAGLGMVLKSVVGGELRWFTNLLYTARNDAIG” to “GYVYVSGFLALVIVVSTYFYMLSRLVLLVLPFLYLRSLSPAAYHVVHWTSFIP”, the “transcriptional activation domain activity” value rises from 48300 to 61000.

Going from “HAARALSLPSISPQFFVLLHKLSFPLLPFWLPMYFLLCITLPSSWLVLLYLFL” to “HAEPGTGWACVKHTSDCTAVKKASGIPGRNFHRRPKYSVVVSAGERTWKAKQC”, the “transcriptional activation domain activity” value rises from 37800 to 52400.

First: HAGTMESHPHTNIHEELKEFLSGDLIEAEDNAKLMFGDDNSNPADYLLEFGSG
Second: HALRTFVYKAAIIPISLFLVHFRRAFSCLCFCALSGFPRCHLTLLSIMFIFSL
The “transcriptional activation domain activity” value of the first is higher: 72500 for the first, 53700 for the second.

Compared with “HAQGEGEYKAAQAEGYAEGTQDRFGGKKDAVIGALTGDRKQEASGTLIPRLKL”, “HAQPRAGDSTRPQESASSSDRPADASGEGGGISKKKKAKRSAAKEEGAGAEDP” is higher in “transcriptional activation domain activity” value: 34400 for the first, 37300 for the second.

First: HARLKIIETATKAWSGALDADIKTKMAQSTAGFSGADVKVRAPHPLWDIHRPL
Second: HASAAPTATPAAPTVEKAKPKSREASPAKPKSPERRRPASPAPAAAVPEPVAA
The “transcriptional activation domain activity” value of the first is higher: 37200 for the first, 32900 for the second.

Going from “HAVTYWMCLELTIHLFYTFNRRSTLYFWSILVSICSIISMTILLELIIFVYPL” to “HCCRLLFLLFLFLFFFLLLFICFFLRLLRLLFPHRNTNLTRPIADPIIPIIPP”, the “transcriptional activation domain activity” value falls from 56200 to 46900.

Compared with “HCIEAGIKLVSQFIDMYKEFSPGGKLCQVCWMLTNFSMNDFLLGVMVLCLVIH”, “HCLTFHQTSKLTHILLTYRQSILVTVYSHLLLLDHSSQVWWRWMNIFFTLVIW” is higher in “transcriptional activation domain activity” value: 56200 for the first, 69500 for the second.

Going from “HCNGLLGNADLFEDPYQDELTSELHVLVTERLVNSWKDTILQQLCSCQDTTLS” to “HDDSFIESEEWLSKFIMDSQIDNDLKLNINHFNDIGFNNLHPQNPTTHSEPRN”, the “transcriptional activation domain activity” value rises from 83700 to 117000.

With “HDLLVDSLRLVMELLKAPGGLSVHALTAHLNILSFTVRLLDLCLDMALETPHH” the “transcriptional activation domain activity” value was 84900.
